Article PMC8538406

Target: CCR7-FKBP (DmrA) receptor chimaera, CCR7-M

Matrigel transwell invasion of co-transfected MDA-MB-231 cells with ACH (AP21967), towards CCL19 and CXCL12 together: > 50%
Substance: CXCR4-FRB (DmrC) receptor chimaera, CXCR4-H
